These results are taken from ChEMBL document CHEMBL1255339, “Biochemical characterization of SHV-55, an extended-spectrum class A beta-lactamase from Klebsiella pneumoniae” (Antimicrob Agents Chemother, 2008).

As a reminder, the Km is the substrate concentration at which the rate is half of its maximum. Broadly, the kcat is the maximal rate divided by the concentration of active sites. As usually defined, the kcat/Km is the second-order rate constant that governs catalysis at low substrate concentration.

Substrate in data set [1]: CO/N=C(\C(=O)N[C@@H]1C(=O)N2C(C(=O)[O-])=C(C[N+]3(C)CCCC3)CS[C@H]12)c1csc(N)n1
As to the kind of experiment: (§1) Activity of Klebsiella pneumoniae Beta-Lactamase SHV-1.

Substrate in data set [2]: CC1(C)S[C@@H]2[C@H](NC(=O)[C@H](C(=O)O)c3ccsc3)C(=O)N2[C@H]1C(=O)O
Described as §1.

Substrate in data set [3]: CO/N=C(\C(=O)N[C@@H]1C(=O)N2C(C(=O)O)=C(COC(N)=O)CS[C@H]12)c1ccco1
The description is as §1.

Substrate in data set [4]: CC1(C)S[C@@H]2[C@H](NC(=O)Cc3ccccc3)C(=O)N2[C@H]1C(=O)O
Described as §1.

Substrate in data set [5]: C[C@H]1[C@H](NC(=O)/C(=N\OC(C)(C)C(=O)O)c2csc(N)n2)C(=O)N1S(=O)(=O)O
Described as §1.

Substrate in data set [6]: CO/N=C(\C(=O)N[C@@H]1C(=O)N2C(C(=O)[O-])=C(C[N+]3(C)CCCC3)CS[C@H]12)c1csc(N)n1
The data set can be described thus: (§2) Activity of Klebsiella pneumoniae Beta-Lactamase SHV-55.

Substrate in data set [7]: CC1(C)S[C@@H]2[C@H](NC(=O)[C@H](C(=O)O)c3ccsc3)C(=O)N2[C@H]1C(=O)O
Described as §2.

Substrate in data set [8]: CO/N=C(\C(=O)N[C@@H]1C(=O)N2C(C(=O)O)=C(COC(N)=O)CS[C@H]12)c1ccco1
The description is as §2.

Substrate in data set [9]: CC1(C)S[C@@H]2[C@H](NC(=O)Cc3ccccc3)C(=O)N2[C@H]1C(=O)O
The data set is described as §2.

Substrate in data set [10]: C[C@H]1[C@H](NC(=O)/C(=N\OC(C)(C)C(=O)O)c2csc(N)n2)C(=O)N1S(=O)(=O)O
Described as §2.

Substrate in data set [11]: CCN1CCN(C(=O)N[C@@H](C(=O)N[C@@H]2C(=O)N3[C@@H]2SC(C)(C)[C@@H]3C(=O)O)c2ccccc2)C(=O)C1=O
The description is as §2.

Substrate in data set [12]: CO/N=C(\C(=O)N[C@@H]1C(=O)N2C(C(=O)[O-])=C(C[N+]3(C)CCCC3)CS[C@H]12)c1csc(N)n1
As to the kind of experiment: (§3) Ratio of Kcat to Km for Klebsiella pneumoniae Beta-Lactamase SHV-55.

Substrate in data set [13]: CC1(C)S[C@@H]2[C@H](NC(=O)[C@H](C(=O)O)c3ccsc3)C(=O)N2[C@H]1C(=O)O
Described as §3.

Substrate in data set [14]: CO/N=C(\C(=O)N[C@@H]1C(=O)N2C(C(=O)O)=C(COC(N)=O)CS[C@H]12)c1ccco1
Described as §3.

Substrate in data set [15]: CC1(C)S[C@@H]2[C@H](NC(=O)Cc3ccccc3)C(=O)N2[C@H]1C(=O)O
The description is as §3.

Substrate in data set [16]: CCN1CCN(C(=O)N[C@@H](C(=O)N[C@@H]2C(=O)N3[C@@H]2SC(C)(C)[C@@H]3C(=O)O)c2ccccc2)C(=O)C1=O
The description is as §3.

B1: Beta-lactamase SHV-1 (Klebsiella pneumoniae), P0AD64 (protein)
chain: MRYIRLCIISLLATLPLAVHASPQPLEQIKLSESQLSGRVGMIEMDLASGRTLTAWRADERFPMMSTFKVVLCGAVLARVDAGDEQLERKIHYRQQDLVDYSPVSEKHLADGMTVGELCAAAITMSDNSAANLLLATVGGPAGLTAFLRQIGDNVTRLDRWETELNEALPGDARDTTTPASMAATLRKLLTSQRLSARSQRQLLQWMVDDRVAGPLIRSVLPAGWFIADKTGAGERGARGIVALLGPNNKAERIVVIYLRDTPASMAERNQQIAGIGAALIEHWQR
Consider B1, for which the results for the Km in [1], in data set [3] and in data set [4] were 149 µM, 80 µM and 23 µM, respectively. Besides, the kcat in data set [1] is less than 0.1 s⁻¹; in data set [2], 220 s⁻¹; in [3], less than 0.1 s⁻¹; in [5], less than 0.1 s⁻¹.

B2: Beta-lactamase SHV-55 (Klebsiella pneumoniae), Q4TVR4 (protein)
chain: MRFIRLCIISLLATLPLAVHASPQPLEQIKLSESQLSGRVGMIEMDLASGRTLTAWRADERFPMMSTFKVVLCGAVLARVDAGDEQLERKIHYRQQDLVDYSPVSEKHLADGMTVGELCAAAITMSDNSAANLLLATVGGPAGLTAFLRQIGDNVTRLDRWETELNEALPGDARDTTTPASMAATLRKLLTSQRLSARSQRQLLQWMVDDRVAGPLIRSVLPAGWFIADKTGASKRGARGIVALLGPNNKAERIVVIYLRDTPASMAERNQQIAGIGAALIEHWQR
For B2, the Km in data set [6] is 149 µM; in data set [7], 6 µM; in data set [9], 5 µM; in [10], 5 µM; in data set [11], 8 µM. Moreover, the kcat was 30 s⁻¹ in data set [6]; 8 s⁻¹ in data set [7]; 7 s⁻¹ in data set [8]; less than 0.1 s⁻¹ in data set [10]; 27 s⁻¹ in [11]. Besides, the kcat/Km came out at 200000 M⁻¹ s⁻¹ in data set [12]; 1.5e+06 M⁻¹ s⁻¹ in [13]; 300000 M⁻¹ s⁻¹ in [14]; 5.3e+06 M⁻¹ s⁻¹ in [15]; 3.7e+06 M⁻¹ s⁻¹ in [16].
